Consider 94 variants from the supplement of paper PMC10567573.

To fix the notation:
B1: ZNF649 (parent)
chain: DECEKAYFYMSCLVKHKRIHSREK
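Also: lentivirally expressed fusions sorted by FACS into six bins by GFP to DsRed ratio, PSI derived from sequencing read proportions per bin multiplied by bin number.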

Variants of B1 are the subject of the series. The series is described as follows: protein stability index of a GFP-peptide fusion (GPS, HEK-293T) (PSI 1-6); higher = more stable. The following applies: c terminus: a fixed tail appended.
For DECEKAYFYMSELVKHKRIHSREK [C12E], the protein stability index worked out at 3.54.

For the variant DECEKAYFYMSNLVKHKRIHSREK [C12N], the protein stability index was 3.38.

DECEKAYFYMSGLVKHKRIHSREK [C12G]: the protein stability index was determined as 3.33.

Consider DECEKAYFYMSPLVKHKRIHSREK [C12P], for which the protein stability index came out at 3.05.

For DECEKAYFYMSYLVKHKRIHSREK [C12Y], the protein stability index was determined as 2.43.

Turning to DECEKAYFYMSRLVKHKRIHSREK [C12R], the protein stability index came to 2.96.

In the case of DECEKAYFYMSTLVKHKRIHSREK [C12T], the protein stability index came out at 3.83.

With DECEKAYFYMSMLVKHKRIHSREK [C12M], the protein stability index was 2.95.

As for DECEKAYFYMSLLVKHKRIHSREK [C12L], the protein stability index was 2.23.

On to DECEKAYFYMSHLVKHKRIHSREK [C12H], for which the protein stability index stood at 3.12.

As for DECEKAYFYMSALVKHKRIHSREK [C12A], the protein stability index turned out to be 2.83.

In the case of DECEKAYFYMSWLVKHKRIHSREK [C12W], the protein stability index came out at 2.33.

As for DECEKAYFYMSILVKHKRIHSREK [C12I], the protein stability index was 1.64.

For DECEKAYFYMSSLVKHKRIHSREK [C12S], the protein stability index stood at 3.68.

On to DECEKAYFYMSKLVKHKRIHSREK [C12K], for which the protein stability index was determined as 2.8.

Take DECEKAYFYMSDLVKHKRIHSREK [C12D]: the protein stability index was determined as 4.16.

For DECEKAYFYMSFLVKHKRIHSREK [C12F], the protein stability index was 2.69.

For the variant DECEKAYFYMSVLVKHKRIHSREK [C12V], the protein stability index is 2.42.

For the variant DECEKAYFYMSQLVKHKRIHSREK [C12Q], the protein stability index is 3.09.

For DECEKAYFYMSCLVHHKRIHSREK [K15H], the protein stability index was found to be 2.45.

Take DECEKAYFYMSCLVQHKRIHSREK [K15Q]: the protein stability index turned out to be 2.3.

Consider DECEKAYFYMSCLVFHKRIHSREK [K15F], for which the protein stability index came out at 1.87.

On to DECEKAYFYMSCLVYHKRIHSREK [K15Y], for which the protein stability index worked out at 1.92.

In the case of DECEKAYFYMSCLVSHKRIHSREK [K15S], the protein stability index is 2.34.

Take DECEKAYFYMSCLVNHKRIHSREK [K15N]: the protein stability index was found to be 3.16.

For the variant DECEKAYFYMSCLVCHKRIHSREK [K15C], the protein stability index came out at 2.41.

On to DECEKAYFYMSCLVVHKRIHSREK [K15V], for which the protein stability index came to 1.75.

For DECEKAYFYMSCLVTHKRIHSREK [K15T], the protein stability index came to 2.16.

Take DECEKAYFYMSCLVWHKRIHSREK [K15W]: the protein stability index came out at 1.53.

Regarding DECEKAYFYMSCLVEHKRIHSREK [K15E], the protein stability index amounted to 2.54.

On to DECEKAYFYMSCLVLHKRIHSREK [K15L], for which the protein stability index stood at 2.15.

Turning to DECEKAYFYMSCLVPHKRIHSREK [K15P], the protein stability index amounted to 2.02.

For DECEKAYFYMSCLVDHKRIHSREK [K15D], the protein stability index amounted to 3.24.

As for DECEKAYFYMSCLVIHKRIHSREK [K15I], the protein stability index worked out at 2.18.

On to DECEKAYFYMSCLVMHKRIHSREK [K15M], for which the protein stability index came to 1.9.

Turning to DECEKAYFYMSCLVAHKRIHSREK [K15A], the protein stability index was 2.56.

In the case of DECEKAYFYMSCLVRHKRIHSREK [K15R], the protein stability index stood at 2.12.

With DECEKAYFYMSCLVGHKRIHSREK [K15G], the protein stability index came out at 2.29.

DECEKAYFYMWCLVKHKRIHSREK [S11W]: the protein stability index is 1.33.

On to DECEKAYFYMPCLVKHKRIHSREK [S11P], for which the protein stability index stood at 3.24.

Regarding DECEKAYFYMQCLVKHKRIHSREK [S11Q], the protein stability index was 3.03.

With DECEKAYFYMVCLVKHKRIHSREK [S11V], the protein stability index is 1.87.

As to DECEKAYFYMTCLVKHKRIHSREK [S11T], the protein stability index came to 2.94.

Regarding DECEKAYFYMRCLVKHKRIHSREK [S11R], the protein stability index was 2.47.

Turning to DECEKAYFYMYCLVKHKRIHSREK [S11Y], the protein stability index is 2.68.

Take DECEKAYFYMSCLTKHKRIHSREK [V14T]: the protein stability index is 3.09.

In the case of DECEKAYFYMSCLAKHKRIHSREK [V14A], the protein stability index turned out to be 2.88.

As to DECEKAYFYMSCLQKHKRIHSREK [V14Q], the protein stability index came to 3.05.

For DECEKAYFYMSCLPKHKRIHSREK [V14P], the protein stability index is 3.27.

With DECEKAYFYMSCLMKHKRIHSREK [V14M], the protein stability index came out at 2.18.

Take DECEKAYFYMSCLKKHKRIHSREK [V14K]: the protein stability index was determined as 3.41.

Turning to DECEKAYFYMSCLYKHKRIHSREK [V14Y], the protein stability index worked out at 2.5.

With DECEKAYFYMSCLHKHKRIHSREK [V14H], the protein stability index was determined as 3.86.

Regarding DECEKAYFYMSCLDKHKRIHSREK [V14D], the protein stability index worked out at 3.73.

Consider DECEKAYFYMSCLIKHKRIHSREK [V14I], for which the protein stability index was found to be 2.11.

As to DECEKAYFYMSCLLKHKRIHSREK [V14L], the protein stability index was 2.63.

Consider DECEKAYFYMSCLCKHKRIHSREK [V14C], for which the protein stability index came out at 2.33.

For the variant DECEKAYFYMSCLFKHKRIHSREK [V14F], the protein stability index was 1.78.

Consider DECEKAYFYMSCLNKHKRIHSREK [V14N], for which the protein stability index turned out to be 3.53.

Turning to DECEKAYFYMSCLGKHKRIHSREK [V14G], the protein stability index was 2.9.

Turning to DECEKAYFYMSCLSKHKRIHSREK [V14S], the protein stability index amounted to 3.65.

Regarding DECEKAYFYMSCLRKHKRIHSREK [V14R], the protein stability index was 3.12.

For DECEKAYFYMSCLWKHKRIHSREK [V14W], the protein stability index came to 1.64.

On to DECEKAYFYMSCLEKHKRIHSREK [V14E], for which the protein stability index was 3.38.

Take DECEKAYFYMSCLVKKKRIHSREK [H16K]: the protein stability index turned out to be 2.65.

Turning to DECEKAYFYMSCLVKFKRIHSREK [H16F], the protein stability index was 1.79.

In the case of DECEKAYFYMSCLVKEKRIHSREK [H16E], the protein stability index is 3.53.

In the case of DECEKAYFYMSCLVKLKRIHSREK [H16L], the protein stability index stood at 1.84.

As for DECEKAYFYMSCLVKDKRIHSREK [H16D], the protein stability index stood at 3.25.

Consider DECEKAYFYMSCLVKNKRIHSREK [H16N], for which the protein stability index was determined as 2.75.

As for DECEKAYFYMSCLVKAKRIHSREK [H16A], the protein stability index is 2.51.

Take DECEKAYFYMSCLVKMKRIHSREK [H16M]: the protein stability index was found to be 1.98.

Regarding DECEKAYFYMSCLVKCKRIHSREK [H16C], the protein stability index was determined as 1.76.

As to DECEKAYFYMSCLVKIKRIHSREK [H16I], the protein stability index was 1.69.

Regarding DECEKAYFYMSCLVKGKRIHSREK [H16G], the protein stability index is 3.24.

Consider DECEKAYFYMSCAVKHKRIHSREK [L13A], for which the protein stability index was determined as 3.07.

Take DECEKAYFYMSCCVKHKRIHSREK [L13C]: the protein stability index was determined as 3.27.

Take DECEKAYFYMSCFVKHKRIHSREK [L13F]: the protein stability index is 3.18.

As for DECEKAYFYMSCSVKHKRIHSREK [L13S], the protein stability index is 2.79.

For DECEKAYFYMSCKVKHKRIHSREK [L13K], the protein stability index is 2.68.

As to DECEKAYFYMSCMVKHKRIHSREK [L13M], the protein stability index came out at 3.25.

With DECEKAYFYMSCGVKHKRIHSREK [L13G], the protein stability index was 3.24.

Consider DECEKAYFYMSCPVKHKRIHSREK [L13P], for which the protein stability index came to 3.1.

For the variant DECEKAYFYMSCRVKHKRIHSREK [L13R], the protein stability index amounted to 2.15.

Turning to DECEKAYFYMSCQVKHKRIHSREK [L13Q], the protein stability index was 2.99.

For the variant DECEKAYFYMSCTVKHKRIHSREK [L13T], the protein stability index turned out to be 2.81.

Regarding DECEKAYFYMSCIVKHKRIHSREK [L13I], the protein stability index was found to be 2.29.

For DECEKAYFYMSCEVKHKRIHSREK [L13E], the protein stability index is 3.61.

For DECEKAYFYMSCVVKHKRIHSREK [L13V], the protein stability index worked out at 2.98.

As for DECEKAYFYMSCNVKHKRIHSREK [L13N], the protein stability index was 3.65.

As to DECEKAYFYMSCYVKHKRIHSREK [L13Y], the protein stability index is 2.21.

With DECEKAYFYMSCDVKHKRIHSREK [L13D], the protein stability index is 4.25.

Turning to DECEKAYFYMSCWVKHKRIHSREK [L13W], the protein stability index worked out at 3.19.

For the variant DECEKAYFYMSCHVKHKRIHSREK [L13H], the protein stability index worked out at 2.95.
